Assay in all cases: fluorescence anisotropy
Series [1] concerns POLRMT K402Q (acetyl mimic) (Homo sapiens). The note with it: N=5; 20 mM Tris-HCl EDTA buffer (pH and salt not given), 3 nM labeled duplex, 0-20 nM POLRMT, 25 °C; fit with Hill slope.
Another series concerns POLRMT WT (Homo sapiens). The conditions noted are these: no TFAM or TFB2M mentioned; N=7; 20 mM Tris-HCl EDTA buffer (pH and salt not given), 3 nM labeled duplex, 0-20 nM POLRMT, 25 °C; fit with Hill slope.
In series [2] the test system is POLRMT T993E (phosphomimic) (Homo sapiens). The conditions noted are these: N=4; 20 mM Tris-HCl EDTA buffer (pH and salt not given), 3 nM labeled duplex, 0-20 nM POLRMT, 25 °C; fit with Hill slope.
Series [3] deals with POLRMT T315E (phosphomimic) (Homo sapiens). The note with it: N=5; 20 mM Tris-HCl EDTA buffer (pH and salt not given), 3 nM labeled duplex, 0-20 nM POLRMT, 25 °C; fit with Hill slope.

pKd: −log10 of the molar value.

As usually defined, the pKd is −log10 of the Kd, conventionally taken in molar units. As to light strand promoter (LSP) duplex, the pKd in series [1] was 8.52; in the series on POLRMT WT (Homo sapiens) it was 8.46; in series [2], 8.54; in series [3] it was 8.81.

Source of the values: paper PMC10671485.
